Laboratory results reported in US20230212587A1, “Mutant Hydroxyphenylpyruvate Dioxygenase Polypeptide, Encoding Gene Thereof and Use Therefor” (Beijing Dabeinong Biotechnology Co., Ltd., priority 2019, published 2023).
Where a chain is given by its changes, count along the chain named. Names may count otherwise.

B1: ZmHPPD-02: native Zea mays HPPD, SEQ ID NO: 17 (protein)
chain: MPPTPTAAAAGAAVAAASAAEQAAFRLVGHRNFVRFNPRSDRFHTLAFHHVELWCADAASAAGRFSFGLGAPLAARSDLSTGNSAHASLLLRSGSLSFLFTAPYAHGADAATAALPSFSAAAARRFAADHGLAVRAVALRVADAEEAFRTSVAAGARPAFGPVDLGRGFRLAEVELYGDVVLRYVSYPDGAAGEPFLPGFEGVASPGAADYGLSRFDHIVGNVPELAPAAAYFAGFTGFHEFAEFTTEDVGTAESGLNSMVLANNSENVLLPLNEPVHGTKRRSQIQTFLDHHGGPGVQHMALASDDVLRTLREMQARSAMGGFEFMAPPTSDYYDGVRRRAGDVLTEAQIKECQELGVLVDRDDQGVLLQIFPKPVGDRPTLFLEIIQRIGCMERDEKGQEYQKGGCGGFGKGNFSQLFKSIEDYEKSLEAMQAAAAATAQGS
modifications: Zea mays; ZmHPPD Amino Acid Sequence (Zea mays)
B2: HaHPPD-02: native Helianthus annuus HPPD, SEQ ID NO: 93 (protein, listed as Helianthus annuus)
chain: MGTEATVAAVVAGDESDHPTSAFKLVGFKNFIRTNPMSDKFTVKNFHHIEFWCSDATNTARRFSWGLGMPIIFKSDLSTGNSTHASYLLRSGHLNFLFTAPYSPSISPTTTTASIPTFSHSASRHFTATHGLAVRAIAVEVEDAETAFAVSVANGAKPSSPPVTLGHNDVVLSEVKLYGDVVLRYVSYKNNTNNNNNNDNDNYIFLPGFEAMDKTSSFQELDYGIRRLDHAVGNVPELAPAVDYVKSFTGFHEFAEFTAEDVGTSESGLNSVVLACNSEMVLIPMNEPVYGTKRKSQIQTYLEHNEGAGVQHLALASEDIFRTLREMRKRSGVGGFEFMPSPPPTYYRNLKSRAGDVLSDEQIKECEELGILVDRDDQGTLLQIFTKPVGDRPTIFIEIIQRVGCMVKDDEGKVQQKAGCGGFGKGNFSELFKSIEEYEKTLEARSTTAAA
modifications: HaHPPD Amino Acid Sequence
B3: HaHPPDm-F372A-02: Helianthus annuus HPPD mutant F372A, SEQ ID NO: 96 (protein)
chain: B2 chain with F385A
modifications: HaHPPDm-F372A Amino Acid Sequence
B4: BnHPPD-02: native Brassica napus HPPD, SEQ ID NO: 87 (protein, listed as Brassica napus)
chain: MGHENAAVCETQQHDDAASPGFKLVGFSKFVRKNPKSDKFKVKRFHHIEFWCGDATNVSRRFSWGLGMRFSAKSDLSTGNMVHASYLLTSGDLRFLFTAPYSPSLSAGEAQPSATASIPSFDHASCRSFFSSHGLGVRAVAIEVEDAESAFSISVANGAVPSSPPNVLNGAVTIAEVKLYGDVVLRYVSYYNGTVSFLPGFESVDDTSSFPLDYGIRRLDHAVGNVPELGPALTYLAGFTGFHQFAEFTADDVGTAESGLNSAVLANNDEMVLLPINEPVHGTKRKSQIQTFLEHNEGAGLQHLALMSEDIFRTLREMRKRSGVGGFDFMPSPPPTYYKNLKKRVGDVLSEEQIEECEELGILVDRDDQGTLLQIFTKPLGDRPTIFIEIIQRVGCMKRDEEGKVYQSGGCGGFGKGNFSELFKSIEEYEKTLEAKQLVG
modifications: BnHPPD Amino Acid Sequence
B5: BnHPPDm-F372A-02: Brassica napus HPPD mutant F372A, SEQ ID NO: 90 (protein)
chain: B4 chain with F376A
modifications: BnHPPDm-F372A Amino Acid Sequence
B6: CaHPPD-02: native Cicer arietinum HPPD, SEQ ID NO: 81 (protein, listed as Cicer arietinum)
chain: MGTIETQTGFKLVGFNNFVRTNPKSDRFKVKRFHHVEFWCPDATNTARRFSWGLGMPIVAKSDLSTGNQTHASYLLRSGDLNFLFTAAYSPSISLSAPHPTASIPSFSAPTSFAFSASHGLGVRAVAIEVDDAEFAYTTSVNHGAIPSSPPVVLDNRVKLAEVQLYGDVVLRYVSYNDPIETSNPNPNHWFLPGFEPVEETSSNQSIDFGIQRLDHAVGNVPELSSALNYVKQFTGFHEFAEFTAEDVGTSESGLNSTVLANNEETVLLPMNEPVYGTKRKSQIQTYLEHNEGAGLQHLALMSNDIFKTLREMRKRSGIGGFEFMPSPPPTYYSNLKKRVGDVLNDEQIKECEELGILVDKDDQGTLLQIFTKPVGDRPTIFIEIIQRVGCMLKDDEGKEYQKGGCGGFGKGNFSELFKSIEEYEKTLEIKRTA
modifications: CaHPPD Amino Acid Sequence
B7: CaHPPD-F372A-02: Cicer arietinum HPPD mutant F372A, SEQ ID NO: 84 (protein)
chain: B6 chain with F371A
modifications: CaHPPDm-F372A Amino Acid Sequence

Test system: Arabidopsis thaliana T1 plants
Assay: Topramezone tolerance of transgenic Arabidopsis thaliana T1 plants (pesticide damage grade by bleached leaf area, score, resistance evaluation)
Format: in vivo
Conditions: HPPDs from different species, 7 DAT; for Classification and statistics of pesticide damage grade Grade 0 / Classification and statistics of pesticide damage grade Grade 1 / Classification and statistics of pesticide damage grade Grade 2 / Classification and statistics of pesticide damage grade Grade 3: number of plants (of 16) in this grade; for Scores: score for pesticide damage 0-100
How it was run: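 Herbicide tolerance was judged per plant on a bleaching scale (grade 0 no bleaching to grade 3 fully bleached) 7 DAT. Topramezone doses were 0, 25, 50 and 100 g ai/ha on 18-day-old T1 and wild-type plants.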

Molecule	Classification and statistics of pesticide damage grade Grade 0 (topramezone 25 g ai/ha (1x))	Classification and statistics of pesticide damage grade Grade 1 (topramezone 25 g ai/ha (1x))	Classification and statistics of pesticide damage grade Grade 2 (topramezone 25 g ai/ha (1x))	Classification and statistics of pesticide damage grade Grade 3 (topramezone 25 g ai/ha (1x))	Classification and statistics of pesticide damage grade Grade 0 (topramezone 100 g ai/ha (4x))	Classification and statistics of pesticide damage grade Grade 1 (topramezone 100 g ai/ha (4x))	Classification and statistics of pesticide damage grade Grade 2 (topramezone 100 g ai/ha (4x))	Classification and statistics of pesticide damage grade Grade 3 (topramezone 100 g ai/ha (4x))	Scores (topramezone 25 g ai/ha (1x))	Scores (topramezone 100 g ai/ha (4x))	Resistance evaluation (topramezone 25 g ai/ha (1x))	Resistance evaluation (topramezone 100 g ai/ha (4x))
B1	0	0	0	16	0	0	0	16	100	100	non-resistant (non-resistant plants (scores 68-100))	non-resistant (non-resistant plants (scores 68-100))
B2	0	0	0	16	0	0	0	16	100	100	non-resistant (non-resistant plants (scores 68-100))	non-resistant (non-resistant plants (scores 68-100))
B3	0	8	8	0	0	2	12	2	50	67	poorly resistant (poorly resistant plants (scores 34-67))	poorly resistant (poorly resistant plants (scores 34-67))
B4	0	0	0	16	0	0	0	16	100	100	non-resistant (non-resistant plants (scores 68-100))	non-resistant (non-resistant plants (scores 68-100))
B5	0	4	12	0	0	0	0	16	58	100	poorly resistant (poorly resistant plants (scores 34-67))	non-resistant (non-resistant plants (scores 68-100))
B6	0	0	0	16	0	0	0	16	100	100	non-resistant (non-resistant plants (scores 68-100))	non-resistant (non-resistant plants (scores 68-100))
B7	0	13	3	0	0	0	0	16	40	100	poorly resistant (poorly resistant plants (scores 34-67))	non-resistant (non-resistant plants (scores 68-100))
